# Data: publication PMC6482197, “Inhibition of HtrA2 alleviated dextran sulfate sodium (DSS)-induced colitis by preventing necroptosis of intestinal epithelial cells” (Cell Death & Disease, 2019)
# Biological target: the molecule itself
# Experiment: not stated; MLKL trimer formation in T/S-treated L929 cells, with or without UCF-101 (Supplementary Fig. 5)
protein,measurement,value
"MLKL (natural protein, mouse (endogenous in L929), UniProt Q9D2Y4 1-472, looked up, MLKL, endogenous in the mouse fibroblast line L929; The trimer is seen in the execution phase of necroptosis; also called mixed lineage kinase domain like pseudokinase; MLKL trimer; source: endogenous, L929 cells treated with TNF-α plus Smac mimetic (T/S)) MDKLGQIIKLGQLIYEQCEKMKYCRKQCQRLGNRVHGLLQPLQRLQAQGKKNLPDDITAALGRFDEVLKEANQQIEKFSKKSHIWKFVSVGNDKILFHEVNEKLRDVWEELLLLLQVYHWNTVSDVSQPASWQQEDRQDAEEDGNENMKVILMQLQISVEEINKTLKQCSLKPTQEIPQDLQIKEIPKEHLGPPWTKLKTSKMSTIYRGEYHRSPVTIKVFNNPQAESVGIVRFTFNDEIKTMKKFDSPNILRIFGICIDQTVKPPEFSIVMEYCELGTLRELLDREKDLTMSVRSLLVLRAARGLYRLHHSETLHRNISSSSFLVAGGYQVKLAGFELSKTQNSISRTAKSTKAERSSSTIYVSPERLKNPFCLYDIKAEIYSFGIVLWEIATGKIPFEGCDSKKIRELVAEDKKQEPVGQDCPELLREIINECRAHEPSQRPSVDGRSLSGRERILERLSAVEESTDKKV",stoichiometry N,3
